Target: acetylcholine receptor
Assay: SPR, AchR immobilized on CM5 chip, peptide at 10 uM

Binding affinity (RU)	Binder
151	RGQRKK [6mer-2-357]
27	KKKHKR [6mer-1-858]
148	RRYSKK [6mer-2-347]
154	RQIYKK [6mer-2-358]
32	RRTWGR [6mer-1-864]
19	RKTMFK [6mer-1-848]
135	KLITKR [6mer-2-336]
28	KKKTIK [6mer-1-843]
145	KVVRRR [6mer-2-369]
148	RGQTRK [6mer-2-350]
124	RGIRKK [6mer-2-355]
139	KLIYRK [6mer-2-373]
21	KKFNWK [6mer-1-849]
145	RLLQRR [6mer-2-356]
142	RWRSRR [6mer-2-367]
141	KQQCKR [6mer-2-376]
125	KRQLKK [6mer-2-374]
17	KRNTWK [6mer-1-838]
30	KRCNGR [6mer-1-853]
12	RKICNK [6mer-1-840]
142	KQYYRR [6mer-2-366]
131	RVVQKK [6mer-2-375]
22	RKHWWR [6mer-1-860]
19	RRYKNR [6mer-1-833]
147	KSIYRK [6mer-2-363]
12	RKYWGK [6mer-1-832]

Binding affinity (RU)	Binder
137	RLQTKK [6mer-2-353]
136	RLFCKK [6mer-2-359]
154	RGRQKR [6mer-2-362]
154	KVFTKK [6mer-2-364]
137	RWFYRR [6mer-2-352]
21	KKMTAR [6mer-1-865]
141	KGVRRR [6mer-2-360]
135	RWISKK [6mer-2-354]
145	KRYRKK [6mer-2-342]
26	KRTADK [6mer-1-835]
27	RRCTER [6mer-1-863]
23	KKIDKK [6mer-1-845]
15	RKCDVR [6mer-1-855]
141	KLVQRR [6mer-2-372]
148	KSRQKK [6mer-2-345]
28	KKPMNR [6mer-1-844]
135	KLYTKR [6mer-2-351]
153	RSFQRR [6mer-2-361]
151	KQVYKK [6mer-2-339]
21	KRINIR [6mer-1-861]
17	KRNTIR [6mer-1-834]
121	RWRYRR [6mer-2-365]
122	RRLTRR [6mer-2-340]
153	KRFSKK [6mer-2-346]
153	KWRSRR [6mer-2-335]
29	KRNWAK [6mer-1-839]

Binding affinity (RU)	Binder
19	KRDHAK [6mer-1-837]
30	KRMWFK [6mer-1-856]
137	RRLSRR [6mer-2-349]
19	KRASVK [6mer-1-852]
28	RKDAEK [6mer-1-846]
30	KKDAPR [6mer-1-841]
29	RRNPEK [6mer-1-850]
27	RKCMVK [6mer-1-859]
142	KSLLRR [6mer-2-370]
142	RRYCRR [6mer-2-377]
32	KKHSEK [6mer-1-862]
30	RRYMEK [6mer-1-851]
14	KRPAFK [6mer-1-857]
153	KSQLRR [6mer-2-348]
16	KKEAVR [6mer-1-854]
131	KRFQRK [6mer-2-378]
142	RLRTRR [6mer-2-368]
142	KQFQKK [6mer-2-337]
22	RRCMIK [6mer-1-836]
146	KQISKK [6mer-2-343]
145	RSVQKR [6mer-2-338]
148	KRLSRR [6mer-2-371]
11	RRFANK [6mer-1-842]
148	KGIRRK [6mer-2-344]
20	KKYNHK [6mer-1-847]
144	KVVTKR [6mer-2-341]
